For the test, the target named is recombinant Aβ42 peptide (UniProt P05067).

Sequence of extracellular chaperone clusterin (P10909 23-227): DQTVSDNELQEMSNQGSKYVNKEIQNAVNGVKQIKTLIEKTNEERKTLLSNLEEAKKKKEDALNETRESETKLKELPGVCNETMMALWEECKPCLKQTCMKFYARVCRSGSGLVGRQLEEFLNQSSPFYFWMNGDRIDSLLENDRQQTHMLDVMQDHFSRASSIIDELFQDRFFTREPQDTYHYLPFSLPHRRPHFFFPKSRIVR
Sequence of extracellular chaperone clusterin (P10909 228-449): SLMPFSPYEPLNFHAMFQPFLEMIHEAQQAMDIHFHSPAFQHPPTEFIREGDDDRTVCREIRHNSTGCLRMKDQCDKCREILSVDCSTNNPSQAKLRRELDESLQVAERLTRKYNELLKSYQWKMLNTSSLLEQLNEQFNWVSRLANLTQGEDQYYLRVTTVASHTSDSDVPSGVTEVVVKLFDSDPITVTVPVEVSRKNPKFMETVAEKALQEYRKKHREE

In the case of “extracellular chaperone clusterin (from UniProt P10909 23-227; P10909 228-449) (natural protein)”, the concentration of clusterin required to reduce by half the Ca^2+ influx into lipid vesicles induced by Aβ42 oligomers (t2 aliquot; dilution series) turned out to be 0.1 nM.

For the origin of these results see paper PMC5615231.
